The text below walks through data of US20190367620A1 (Merck KGaA, published 2019).

Experiment [1] deals with T1, human FGFR1b-IIIb extracellular domain with a HIS tag (human).
T1 construct: also called huFGFR1b-IIIb; hFGFR1b-IIIb
T1 chain: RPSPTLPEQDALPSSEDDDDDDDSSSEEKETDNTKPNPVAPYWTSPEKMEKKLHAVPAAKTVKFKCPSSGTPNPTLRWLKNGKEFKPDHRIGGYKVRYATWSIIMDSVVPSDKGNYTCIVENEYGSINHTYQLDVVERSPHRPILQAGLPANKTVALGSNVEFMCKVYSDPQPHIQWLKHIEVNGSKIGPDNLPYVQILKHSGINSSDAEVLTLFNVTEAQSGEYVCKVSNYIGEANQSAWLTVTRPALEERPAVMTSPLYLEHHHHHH
The experiment is described as follows: ELISA, EC50 from OD450 curves, monovalent SEEDbody format. The procedure:
(§1) The binding selectivity of the antibodies were tested by ELISA against the different FGFR family members: FGFR1, FGFR2, FGFR3 and FGFR4. Briefly plates were coated overnight with the different His6-tagged FGFR proteins, after blocking with 1% Bovine Serum albumin, 1 or 0.1 μg/ml of anti-FGFR1 antibodies were incubated for 1 h at room temperature. After washing, the bound antibodies were incubated for 1 h at room temperature with a peroxidase affiniPure F(ab′)2 Fragment goat anti-human Fc (Jackson ImmunoResearch Laboratories #109-036-098) and detection was performed using the TMB HRP Substrate solution (BioFx Lab # TMBW-1000-01).
(§2) The antibody #A08 both as an IgG1 (bivalent) and as a SEEDbody (monovalent), was affinity matured using the yeast display technology described in (Rhiel et al. 2014) and performing light chain shuffling from immunized OmniRats and naïve human library followed by CDR-H3 parsimonious mutagenesis. Following several sorting rounds, yeast clones were picked, unique clones were reformatted as described in Examples 1.6 and 3.1. The binding affinities of the anti-FGFR1 molecules against human FGFR1b-IIIb) and human FGFR1b-IIIc) were measured by ELISA using a similar protocol as described in Example 1.9. The OD450 was plotted against the antibody concentration and GraphPad Prism software was used to calculate EC₅₀ values (see FIG. 10). […] The best results were obtained with mAb #A02 and #C01 showing an EC50 improvement in both IgG1 and SEEDbody formats.

The target in experiment [2] is T2, human FGFR1b-IIIc extracellular domain with a HIS tag (human, UniProt P11362 22-376).
T2 construct: also called huFGFR1b-IIIc; hFGFR1b-IIIc
T2 sequence: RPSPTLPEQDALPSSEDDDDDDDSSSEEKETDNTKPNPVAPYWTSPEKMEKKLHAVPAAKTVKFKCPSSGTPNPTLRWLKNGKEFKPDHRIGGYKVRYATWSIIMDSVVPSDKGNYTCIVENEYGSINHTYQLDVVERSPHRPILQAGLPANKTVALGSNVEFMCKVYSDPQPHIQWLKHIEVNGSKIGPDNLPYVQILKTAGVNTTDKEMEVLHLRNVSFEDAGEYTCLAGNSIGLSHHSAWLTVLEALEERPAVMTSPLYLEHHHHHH
The description is as above. As for the experimental part: as §1, §2

Experiment [3] addresses T3, FGFR1 on NCI-H520 cells (human, UniProt P11362 22-822). The experiment is described as follows: cell-based or functional assay.
Experiment [4] addresses T3, FGFR1 on NCI-H520 cells. The experiment is described as follows: cell-based or functional assay. This is another data set of the same source.
The target of experiment [5] is T4, ratFGFR1a-IIIc (rat, UniProt Q04589 22-376).
T4 construct: Bought, His6 tag; also called rat FGFR1a-IIIc His6-tagged
T4 sequence (looked up): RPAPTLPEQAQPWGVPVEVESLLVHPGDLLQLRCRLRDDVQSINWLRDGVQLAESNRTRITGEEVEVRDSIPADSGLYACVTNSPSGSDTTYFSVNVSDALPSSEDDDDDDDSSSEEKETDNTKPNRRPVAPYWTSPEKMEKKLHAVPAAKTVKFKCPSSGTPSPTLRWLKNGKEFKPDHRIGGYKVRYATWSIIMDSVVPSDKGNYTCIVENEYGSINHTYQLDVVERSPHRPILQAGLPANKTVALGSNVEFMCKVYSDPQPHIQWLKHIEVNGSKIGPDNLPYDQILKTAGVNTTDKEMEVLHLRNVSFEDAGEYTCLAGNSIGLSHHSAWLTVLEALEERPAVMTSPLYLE
The experiment can be described thus: SPR (Biacore 4000), antibody captured, His-tagged FGFR1 injected. As for the experimental part:
(§3) Binding affinities of anti-FGFR1 antibodies to FGFR1 were measured by Surface Plasmon Resonance (SPR) using a GE Healthcare BIAcore 4000 instrument as follows. Goat anti-human Fc antibody (Jackson ImmunoResearch Laboratories #109-005-098) was first immobilized on BIAcore carboxymethylated dextran CM5 chip using direct coupling to free amino groups following the procedure described by the manufacturer. Antibodies were then captured on the CM5 biosensor chip to achieve approximately 200 response units (RU). Binding measurements were performed using the running HBS-EP+ buffer. A 2-fold dilution series of His-tagged FGFR1 proteins were injected at a flow rate of 30 μl/min at 25° C. Association rates (kₒₙ, per mol/s) and dissociation rates (koff, per s) were calculated using a simple 1:1 Langmuir binding model (Biacore 4000 Evaluation Software). The equilibrium dissociation constant (KD, mol) was calculated as the ratio of koff/kₒₙ.
Background: SPR reads the build-up and loss of mass on a sensor chip optically.

In experiment [6] the target is T5, Human FGFR1 D2-His6 (human, UniProt P11362 22-254).
T5 construct: also called D2 domain; F3FR1c-D2
T5 sequence: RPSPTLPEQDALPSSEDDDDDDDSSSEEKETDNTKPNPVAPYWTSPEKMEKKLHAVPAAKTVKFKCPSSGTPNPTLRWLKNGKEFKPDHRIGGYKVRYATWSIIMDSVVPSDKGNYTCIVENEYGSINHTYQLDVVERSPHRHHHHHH
The experiment can be described thus: ELISA, antibody titrated on FGFR1 Ig-D2, O.D. 450 nm [panel FGFR1 Ig-D2].

The target of experiment [7] is T2, human FGFR1b-IIIc extracellular domain …. The experiment is described as follows: SPR (Biacore 4000), antibody captured, His-tagged FGFR1 injected; differs from the cell of Table 1. The procedure:
as §3

The target of experiment [8] is T6, muFGFR1a-IIIc (mouse, UniProt P16092 22-376).
T6 construct: Bought, His6 tag; also called mouse FGFR1a-IIIc His6-tagged; murine FGFR1a-IIIc
T6 sequence (looked up): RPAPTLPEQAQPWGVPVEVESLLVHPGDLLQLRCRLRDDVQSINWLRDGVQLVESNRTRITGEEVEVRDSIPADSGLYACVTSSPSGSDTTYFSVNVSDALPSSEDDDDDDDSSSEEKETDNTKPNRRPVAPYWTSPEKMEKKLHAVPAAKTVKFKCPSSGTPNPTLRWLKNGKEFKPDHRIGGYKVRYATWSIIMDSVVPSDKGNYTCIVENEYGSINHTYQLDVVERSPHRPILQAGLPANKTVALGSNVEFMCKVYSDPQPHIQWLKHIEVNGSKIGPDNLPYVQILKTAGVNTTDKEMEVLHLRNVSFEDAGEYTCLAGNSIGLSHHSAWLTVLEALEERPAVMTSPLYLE
The experiment is described as follows: SPR (Biacore 4000), antibody captured, His-tagged FGFR1 injected; no unit in the table, nM inferred from paragraph 90. As for the experimental part:
as §3

The target in experiment [9] is T7, rheFGFR1a-IIIc (rhesus monkey).
T7 construct: Bought, His6 tag; also called rhesus monkey FGFR1a-IIIc His6-tagged
Described as above. As for the experimental part: as §3

The target in experiment [10] is T1, human FGFR1b-IIIb extracellular domain …. The experiment is described as follows: SPR (BIAcore), IgG1 format; target IIIb by paragraph 74 and paragraph 125, the table's title says IIIc; IgG1 (bivalent), not SEEDbody. The procedure: as §3
The affinities to human FGFR1b-IIIb for the affinity matured clones reformatted as IgG and monovalent SEEDbodies were measured by BIAcore (using a protocol similar to the one described in Example 1.8) and compared to those of mAb #08 (Table 5).

Bounds are passed on as bounds.

T3 sequence (P11362 22-822): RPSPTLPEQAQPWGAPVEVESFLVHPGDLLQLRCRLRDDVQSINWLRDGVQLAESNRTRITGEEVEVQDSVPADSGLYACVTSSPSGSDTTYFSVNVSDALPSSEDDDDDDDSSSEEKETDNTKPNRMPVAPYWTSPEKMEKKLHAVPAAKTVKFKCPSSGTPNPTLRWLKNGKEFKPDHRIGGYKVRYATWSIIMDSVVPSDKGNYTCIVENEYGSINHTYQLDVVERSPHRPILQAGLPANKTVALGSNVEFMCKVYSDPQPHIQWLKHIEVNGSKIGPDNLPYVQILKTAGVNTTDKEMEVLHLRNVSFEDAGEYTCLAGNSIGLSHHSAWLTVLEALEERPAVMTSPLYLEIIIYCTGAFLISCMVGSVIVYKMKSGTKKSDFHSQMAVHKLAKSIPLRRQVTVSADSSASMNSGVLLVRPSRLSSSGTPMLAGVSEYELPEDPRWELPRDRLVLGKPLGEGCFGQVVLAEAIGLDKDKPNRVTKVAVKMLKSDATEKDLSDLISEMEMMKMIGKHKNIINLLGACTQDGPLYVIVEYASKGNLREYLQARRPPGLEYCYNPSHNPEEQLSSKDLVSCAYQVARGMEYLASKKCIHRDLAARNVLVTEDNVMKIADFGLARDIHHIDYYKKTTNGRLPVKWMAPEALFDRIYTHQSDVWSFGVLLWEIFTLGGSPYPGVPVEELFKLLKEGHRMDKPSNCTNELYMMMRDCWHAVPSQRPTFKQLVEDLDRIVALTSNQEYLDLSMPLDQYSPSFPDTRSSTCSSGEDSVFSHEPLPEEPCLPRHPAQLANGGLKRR

B1: #D02 SEEDbody (monovalent) (antibody)
heavy: QVQLQESGPGLVKPSGTLSLTCAVSGGSISSNNWWSWVRQPPGKGLEWIGEIYHSGSTSYNPSLKSRVTISVDKSKNQFSLKLSSVTAADTAVYYCARGTDWIDTWGQGTLVTVSSASTKGPSVFPLAPSSKSTSGGTAALGCLVKDYFPEPVTVSWNSGALTSGVHTFPAVLQSSGLYSLSSVVTVPSSSLGTQTYICNVNHKPSNTKVDKRVEPKSCDKTHTCPPCPAPELLGGPSVFLFPPKPKDTLMISRTPEVTCVVVDVSHEDPEVKFNWYVDGVEVHNAKTKPREEQYNSTYRVVSVLTVLHQDWLNGKEYKCKVSNKALPAPIEKTISKAKGQPFRPEVHLLPPSREEMTKNQVSLTCLARGFYPKDIAVEWESNGQPENNYKTTPSRQEPSQGTTTFAVTSKLTVDKSRWQQGNVFSCSVMHEALHNHYTQKTISLSPG
chain: EPKSSDKTHTCPPCPAPELLGGPSVFLFPPKPKDTLMISRTPEVTCVVVDVSHEDPEVKFNWYVDGVEVHNAKTKPREEQYNSTYRVVSVLTVLHQDWLNGKEYKCKVSNKALPAPIEKTISKAKGQPREPQVYTLPPPSEELALNELVTLTCLVKGFYPSDIAVEWLQGSQELPREKYLTWAPVLDSDGSFFLYSILRVAAEDWKKGDTFSCSVMHEALHNHYTQKSLDRSPG
light: SYVLTQPPSVSVAPGQTARITCGGNNIGSESVHWYQQKPGQAPVLVVYDDSDRPSGIPERFSGSNSGNTATLTISRVEAGDEADYYCQVWDSTSDHRVFGGGTKLTVLGQPKAAPSVTLFPPSSEELQANKATLVCLISDFYPGAVTVAWKADSSPVKAGVETTTPSKQSNNKYAASSYLSLTPEQWKSHKSYSCQVTHEGSTVEKTVAPTECS
notes: also called #D02-SEED(AG)
For the molecule B1, the binding result in [1] and in experiment [2] was “binds” in each case.

B2: #G04 SEEDbody (monovalent) (antibody)
heavy: QVQLQESGPGLVKPSGTLSLTCAVSGGSISSNNWWSWVRQPPGKGLEWIGEIYHSGSTSYNPSLKSRVTISVDKSKNQFSLKLSSVTAADTAVYYCARGTDWYDLWGQGTLVTVSSASTKGPSVFPLAPSSKSTSGGTAALGCLVKDYFPEPVTVSWNSGALTSGVHTFPAVLQSSGLYSLSSVVTVPSSSLGTQTYICNVNHKPSNTKVDKRVEPKSCDKTHTCPPCPAPELLGGPSVFLFPPKPKDTLMISRTPEVTCVVVDVSHEDPEVKFNWYVDGVEVHNAKTKPREEQYNSTYRVVSVLTVLHQDWLNGKEYKCKVSNKALPAPIEKTISKAKGQPFRPEVHLLPPSREEMTKNQVSLTCLARGFYPKDIAVEWESNGQPENNYKTTPSRQEPSQGTTTFAVTSKLTVDKSRWQQGNVFSCSVMHEALHNHYTQKTISLSPG
chain: EPKSSDKTHTCPPCPAPELLGGPSVFLFPPKPKDTLMISRTPEVTCVVVDVSHEDPEVKFNWYVDGVEVHNAKTKPREEQYNSTYRVVSVLTVLHQDWLNGKEYKCKVSNKALPAPIEKTISKAKGQPREPQVYTLPPPSEELALNELVTLTCLVKGFYPSDIAVEWLQGSQELPREKYLTWAPVLDSDGSFFLYSILRVAAEDWKKGDTFSCSVMHEALHNHYTQKSLDRSPG
light: SYVLTQPPSVSVAPGQTARITCGGNNIGSESVHWYQQKPGQAPVLVVYDDSDRPSGIPERFSGSNSGNTATLTISRVEAGDEADYYCQVWDSTSDHRVFGGGTKLTVLGQPKAAPSVTLFPPSSEELQANKATLVCLISDFYPGAVTVAWKADSSPVKAGVETTTPSKQSNNKYAASSYLSLTPEQWKSHKSYSCQVTHEGSTVEKTVAPTECS
notes: also called #G04-SEED(AG)
In the case of B2, the binding result in [1] and in [2] was “binds” throughout.

B3: mAb #A05 (antibody, V domains shown)
VH: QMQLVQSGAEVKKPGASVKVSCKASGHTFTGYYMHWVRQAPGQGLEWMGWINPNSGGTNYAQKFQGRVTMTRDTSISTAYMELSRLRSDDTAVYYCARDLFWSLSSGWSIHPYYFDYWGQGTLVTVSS
VL: QSALTQPASVSGSPGQSITISCTGTSSDVGSYNLVSWYQQHPGKAPKLMIYGGSKRPSGVPDRFSGSKSDTSASLTISGLQAEDEADYYCCSYTYNGDVFGTGTKVTVL
notes: also called #A05 hit; A05 (IgG1)
Consider B3, for which, in experiment [3], the “IC50, inhibition of P-FGFR1 in NCI-H520 cells, FGF1 stimulated (asterisk: partial response)” value turned out to be 1 nM and the “IC50, inhibition of P-FGFR1 in NCI-H520 cells, FGF2 stimulated” value stood at 1 nM. Besides, in experiment [4], the “IC50, pFGFR1 inhibition in NCI-H520 cells, FGF1, IgG1 (asterisk: partial response)” value stood at 8e-09 M; the “IC50, pFGFR1 inhibition in NCI-H520 cells, FGF2, IgG1” value was 3e-09 M; the “IC50, pFGFR1 inhibition in NCI-H520 cells, non-stimulated, IgG1” value is greater than 1e-06 M. The binding result in experiment [5] is given as “no binding”. Besides, the binding result in experiment [6] is given as “no binding (tested: about 0.7 nM (Log(nM) about -0.15))”. Further, the Kd in experiment [7] worked out at 0.01 nM. Moreover, the Kd in experiment [8] was 1.6 nM. This molecule displayed a Kd in experiment [9] of 0.51 nM.

B4: #A08 IgG1 (standard IgG1 built from the #A08 lead heavy and light chains) (antibody, V domains shown)
VH: EVQLQESGPGLVKPSGTLSLTCAVSGGSISSNNWWSWVRQPPGKGLEWIGEIYHSGSTSYNPSLKSRVTISVDKSKNQFSLKLSSVTAADTAVYYCARGTDWFDPWGQGTLVTVSS
VL: SYVLTQPPSVSVAPGQTARITCGGNNIGSESVHWYQQKPGQAPVLVVYDDSDRPSGIPERFSGSNSGNTATLTISRVEAGDEADYYCQVWDSTSDHRVFGGGTKLTVLG
notes: also called #A08 lead IgG1; mAb #A08 in the IgG1 format
Consider B4, for which, in [4], the “IC50, pFGFR1 inhibition in NCI-H520 cells, FGF1, IgG1” value stood at 1e-09 M; the “IC50, pFGFR1 inhibition in NCI-H520 cells, FGF2, IgG1” value was 2e-10 M; the “IC50, pFGFR1 inhibition in NCI-H520 cells, non-stimulated, IgG1 (asterisk: partial response)” value stood at 5e-08 M. In addition, the Kd in experiment [10] was 0.06 nM.
